Experiments:
[1] = biological target: H6-IEGR-RAP
[2] = biological target: H6Ubi-IEGR-ApoA1
[3] = biological target: T1, Ac-IEPD-pNA (N-acetyl-L-isoleucyl-L-glutamyl-L-prolyl-L-aspartyl-p-nitroaniline)
T1 chain: IEPD

[4] = biological target: H6-TripUB IEPD↓IV
[5] = biological target: H6-TripUB IEPD↓TQ
[6] = biological target: H6-TripUB IEPD↓SP
[7] = biological target: H6-TripUB IQAD↓SG
[8] = biological target: H6-TripUB IQAD↓SP
[9] = biological target: H6-TripUB IEPD↓EP
[10] = biological target: H6Ubi-IEPD-ApoA1
[11] = biological target: H6-TripUB IEPD↓EG

Chain of H6-IEGR-RAP (P30533 whole entry): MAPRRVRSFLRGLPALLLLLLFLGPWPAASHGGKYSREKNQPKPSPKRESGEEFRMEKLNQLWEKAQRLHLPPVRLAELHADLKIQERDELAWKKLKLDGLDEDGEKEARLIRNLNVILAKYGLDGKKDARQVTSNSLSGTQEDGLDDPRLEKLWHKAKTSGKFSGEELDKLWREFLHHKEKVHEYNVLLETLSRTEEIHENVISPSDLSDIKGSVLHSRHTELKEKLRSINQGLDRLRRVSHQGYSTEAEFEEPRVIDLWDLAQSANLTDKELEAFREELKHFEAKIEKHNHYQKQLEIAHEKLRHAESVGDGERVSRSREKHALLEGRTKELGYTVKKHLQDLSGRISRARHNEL

B1: purified bovine blood clotting factor Xa (protein)
chain: ANSFLEEVKQGNLERECLEEACSLEEAREVFEDAEQTDEFWSKYKDGDQCEGHPCLNQGHCKDGIGDYTCTCAEGFEGKNCEFSTREICSLDNGGCDQFCREERSEVRCSCAHGYVLGDDSKSCVSTERFPCGKFTQGRSRRWAIHTSEDALDASELEHYDPADLSPTESSLDLLGLNRTEPSAGEDGSQVVRIVGGRDCAEGECPWQALLVNEENEGFCGGTILNEFYVLTAAHCLHQAKRFTVRVGDRNTEQEEGNEMAHEVEMTVKHSRFVKETYDFDIAVLRLKTPIRFRRNVAPACLPEKDWAEATLMTQKTGIVSGFGRTHEKGRLSSTLKMLEVPYVDRSTCKLSSSFTITPNMFCAGYDTQPEDACQGDSGGPHVTRFKDTYFVTGIVSWGEGCARKGKFGVYTKVSNFLKWIDKIMKARAGAAGSRGHSEAPATWTVPPPLPL
cleavage of fusion protein, SDS PAGE, ½ hour at 23° C., protease:fusion protein 1:1000 [1]: After only ½ hour almost all of the fusion protein had been cleaved to give the correct product for both incubations | degradation of fusion protein, SDS PAGE, 27 hours at 23° C. [1]: all of the fusion protein had been degraded to give a variety of smaller fragments after 27 hours, and there is no correctly cleaved product left | fusion protein cleaved, SDS PAGE, 6 hours at 23° C., protease:substrate 1:1000 [2]: only a small fraction of the FXa substrate, H6Ubi-IEGR-ApoA1, has been cleaved after 6 hours | time to complete cleavage, 23° C., protease:substrate 1:1000 [2]: FXa requires more than 48 hours to complete the cleavage of the FXa substrate

B2: GrB-H6 C228F (activated human Granzyme B variant, Cys228 (chymotrypsinogen numbering) to Phe, C-terminal hexa-His tag) (protein)
chain: MGSIEPDIIGGHEAKPHSRPYMAYLMIWDQKSLKRCGGFLIQDDFVLTAAHCWGSSINVTLGAHNIKEQEPTQQFIPVKRPIPHPAYNPKNFSNDIMLLQLERKAKRTRAVQPLRLPSNKAQVKPGQTCSVAGWGQTAPLGKHSHTLQEVKMTVQEDRKCESDLRHYYDSTIELCVGDPEIKKTSFKGDSGGPLVCNKVAQGIVSYGRNNGMPPRAFTKVSSFVHWIKKTMKRYLNSHHHHHH
KM (µM), colorimetric assay, Lineweaver-Burk plot, 100 mM HEPES pH 7.75, 20 nM enzyme [3]: 27 µM | kcat [3]: 4.85 s⁻¹ | kcat/KM (10^4 s^-1M^-1) [3]: 180000 s^-1M^-1 | cleavage of fusion protein, SDS PAGE, 24 hours at 23° C., protease:fusion protein 1:500 [4]: This is also the case for the cleavage of H6-TripUB IEPD↓IV (app. 100% completed after only 24 hours) | cleavage of fusion protein, SDS PAGE, 24 hours at 23° C., protease:fusion protein 1:500 [5]: this is app. 100% completed after only 24 hours | cleavage of fusion protein, SDS PAGE, 96 hours at 23° C., protease:fusion protein 1:500 [6]: the cleavage is almost 100% complete after 96 hours | fusion protein cleaved, SDS PAGE, 48 hours at 21° C., protease:fusion protein 1:500 [6]: After 48 hours approximately 40% has been cleaved at 21 °C | cleavage by immobilized enzyme, non-reducing SDS-PAGE, room temperature over night [7]: For all twelve cleavage experiments the fusion proteins are cleaved to give a single product corresponding to TripUbi moiety from which the H6 fusion partner has been cleaved off | cleavage by immobilized enzyme, non-reducing SDS-PAGE, room temperature over night [8]: For all twelve cleavage experiments the fusion proteins are cleaved to give a single product corresponding to TripUbi moiety from which the H6 fusion partner has been cleaved off | fusion protein cleaved, SDS PAGE, 48 hours at 21° C., protease:fusion protein 1:500 [9]: after 48 hours at 21 °C approximately 35-40% has been cleaved | fusion protein cleaved, SDS PAGE, 50 hours at 21° C., protease:fusion protein 1:500 [9]: after 50 hours at 21 °C approximately 40% has been cleaved | fusion protein cleaved, SDS PAGE, 6 hours at 23° C., protease:substrate 1:1000 [10]: The GrB substrate, H6Ubi-IEPD-ApoA1, is approximately 100% cleaved after only 6 hours incubation at 23 °C | cleavage of fusion protein, SDS PAGE, 6 hours, protease:fusion protein 1:500 [11]: after only 6 hours the cleavage has been completed | time to complete cleavage, protease to substrate ratio 1:500 [11]: it takes less than 5 hours for GrB-H6 C228F to complete the cleavage of H6-TripUbi IEPD↓EG

Reference: patent US20060199251
